Patent US20100216693A1, “COMPOSITIONS AND METHODS OF TREATING DIABETES” (priority 2005, published 2010)

Assays:
[1] = target: Human insulin (Actrapid) (human); assay: SPR (Biacore 3000), insulin 0.25-10 µM over C-terminally immobilized insulin; global fit, analyte with two sites competing for one site on the chip; slow off rate
[2] = target: Human insulin (Actrapid) (human); assay: SPR (Biacore 3000), insulin 0.25-10 µM over C-terminally immobilized insulin; global fit, analyte with two sites competing for one site on the chip; rapid off rate

For “Human insulin (Actrapid) (ligand; other documents disagree on this pair)”, the Kd [1] was 2.71 µM and the Kd [2] was 4.65 µM.
